The record followed here is patent US6458932 (YEDA RESEARCH AND DEVELOPMENT, dated 2002).

The target in this experiment is urinary IFNAB-BPII (human) (UniProt P48551). Description: iRIA; control antibody (dilution 1:1) captured on goat anti-mouse F(ab)2, then 125I-IFNAB-BP.
Sequence of urinary IFNAB-BPII (human) (P48551 other isoform, or with tags, fused parts or gaps): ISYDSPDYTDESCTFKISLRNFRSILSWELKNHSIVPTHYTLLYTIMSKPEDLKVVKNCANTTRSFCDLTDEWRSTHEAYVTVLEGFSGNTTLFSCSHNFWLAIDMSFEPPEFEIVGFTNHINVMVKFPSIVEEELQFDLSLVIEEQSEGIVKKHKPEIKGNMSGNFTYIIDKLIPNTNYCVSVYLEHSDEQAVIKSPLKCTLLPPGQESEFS

As to Control antibody, the iRIA - CPM came to 20 cpm.
